B1: TOR1AIP2 (parent)
chain: DGAGRTWQDSDTVKLLVDLELSYG
B2: ZBTB22 (parent)
chain: HTGLKPYECGVCAKKFMWRDSFMR

Variants of: B1
Assay: protein stability index of a GFP-peptide fusion (GPS, HEK-293T) (PSI 1-6); higher = more stable
Conditions: c terminus: a fixed tail appended
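Note: lentivirally expressed fusions sorted by FACS into six bins by GFP to DsRed ratio, PSI derived from sequencing read proportions per bin multiplied by bin number.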

Protein stability index, by site and new letter:
G24: A 2.47; K 2.88; N 1.26; P 2.77; T 1.73; D 1.8; S 2.51; E 1.71; I 3.44; Q 2.53
E20: Y 1.59; W 2.81
L21: F 1.6; W 1.72; Y 1.62; M 2.65; E 1.62; Q 2.35; D 2; K 2.02; C 1.75; A 2.01; T 1.44; H 2.84; P 3.99; N 2.07
S22: F 1.79; A 3.17; W 1.47; Y 2.35; D 2.51; I 1.55; C 1.85; N 3.21; T 1.56; K 3.51; R 1.84; Q 2.61; P 3.28; E 2.33; G 2.49; L 1.89; H 1.7; M 2.13
Y23: T 2.56; A 1.1; H 1.77; I 1.36; D 1.91; E 1.85; K 3.9; R 2.15; F 1.03; M 5.21; G 2.6; N 1.45; S 1.56

Variants of: B2
Assay: as above
Conditions: c terminus: a fixed tail appended

Protein stability index of substitutions, site by site:
T2: D 3.09; K 2.14; C 3.8; M 1.17; F 4.25; Y 2.79; G 1.74; P 2.72; E 2.67; N 2.28; R 2.38
Y7: D 1.82; M 2.08; G 2.84; A 2.64; I 3.53; K 3.09; N 2.43; S 1.97; L 2.73; E 1.3; Q 1.77; C 2.68; V 1.67; F 2.27; P 1.34; T 3.12
K5: L 1.92; N 1.56; D 3.82; M 2.73; C 2.43; S 1.96; R 2.38; I 2.05; F 2.66; P 1.62
E8: T 2.61; Y 1.3; M 2.26; I 2.78; D 2.94; C 1.96; P 2.59; L 1.49; F 2.2
C9: A 1.46; L 2.75; R 1.8; D 1.85; F 3.19; H 1.48; M 2.58; P 2.65; N 2.26; Q 1.65; I 1.98; K 2.22; G 2.23; E 1.1
H1: A 3.04; C 1.3; I 2.85; D 1.45; Q 2.71; T 2.24; F 1.76; S 1.92
G3: P 4.19; Q 1.52; D 1.36; T 2.23; A 2.15; N 3.32; K 2.3; S 2.62; E 3.34; C 2.47; I 2.91; V 3.07; L 1.69
L4: D 2.32; V 3.58; G 1.92; C 1.64; A 1.62; I 2.75; M 1.93; H 2.07; N 1.37; Y 3.37; S 4.46; F 2.27; E 1.86
P6: N 1.65; F 2.28; M 2.6; L 2.99; V 1.1; E 2.97; H 2.3; I 1.45; S 2.62; Y 2.11; R 2.1; T 2.99; Q 2.26; A 3.44; K 3.36; D 1.82
